Results published in PMC6697678.

Molecular target: recombinant human soluble FcγRIIIa glycoprotein with a C-terminal hexahistidine tag (N-glycosylation sites kept at Asn45 and Asn162 only) (human)
Experiment: high-speed atomic force microscopy (HS-AFM), bound-state dwell time

dwell time [s] | stoichiometry N | Substance
1 | 1 | rituximab, anti-CD20 mouse/human-chimeric IgG1 (G1m17,1; Km3) (antibody)
1 | 1 | trastuzumab, anti-HER2 humanized IgG1 (G1m17,1; Km3) (antibody)
